Laboratory results reported in patent US20150344570A1 (published 2015).

These binders were tested against T1, FcγRIa (human, UniProt P12314 16-292) (assay: SPR (Biacore), captured antibody, FcγRIa analyte; relative to HoCon Ab GpH7-B3/GpL16-k0 = 100).
T1 construct: extracellular domain; soluble extracellular domain with C-terminal His tag, expressed in FreeStyle293 cells; also called FcgRI; FcgRIa
T1 sequence (P12314 16-292): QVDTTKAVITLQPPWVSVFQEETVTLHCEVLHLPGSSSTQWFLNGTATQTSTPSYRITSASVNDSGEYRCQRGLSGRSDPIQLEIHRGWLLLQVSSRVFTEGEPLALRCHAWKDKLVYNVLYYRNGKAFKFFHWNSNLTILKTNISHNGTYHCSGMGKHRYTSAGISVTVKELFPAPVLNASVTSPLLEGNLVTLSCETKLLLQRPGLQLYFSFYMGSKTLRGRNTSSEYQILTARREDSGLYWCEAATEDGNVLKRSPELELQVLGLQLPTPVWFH

Row | Ho/Con_1a | Binder
1 | 104 % of control | GpH7-B3 variant I336_18N/GpL16-k0 (antibody, human IgG1, kappa, homodimerized IgG1, mutation in both H chains; also called Ho Ab) heavy: not shown light: DIVMTQSPLSLPVTPGEPASISCQASESLVHSNRNTYLHWYLQKPGQSPQLLIYKVSNRFSGVPDRFSGSGSGTDFTLKISRVEAEDVGVYYCSQNTHVPPTFGQGTKVEIERTVAAPSVFIFPPSDEQLKSGTASVVCLLNNFYPREAKVQWKVDNALQSGNSQESVTEQDSKDSTYSLSSTLTLSKADYEKHKVYACEVTHQGLSSPVTKSFNRGEC
2 | 102 % of control | GpH7-B3 variant P271_07I/GpL16-k0 (antibody, human IgG1, kappa, homodimerized IgG1, mutation in both H chains; also called Ho Ab) heavy: not shown light: DIVMTQSPLSLPVTPGEPASISCQASESLVHSNRNTYLHWYLQKPGQSPQLLIYKVSNRFSGVPDRFSGSGSGTDFTLKISRVEAEDVGVYYCSQNTHVPPTFGQGTKVEIERTVAAPSVFIFPPSDEQLKSGTASVVCLLNNFYPREAKVQWKVDNALQSGNSQESVTEQDSKDSTYSLSSTLTLSKADYEKHKVYACEVTHQGLSSPVTKSFNRGEC
3 | 101 % of control | GpH7-B3 variant P271_12R/GpL16-k0 (antibody, human IgG1, kappa, homodimerized IgG1, mutation in both H chains; also called Ho Ab) heavy: not shown light: DIVMTQSPLSLPVTPGEPASISCQASESLVHSNRNTYLHWYLQKPGQSPQLLIYKVSNRFSGVPDRFSGSGSGTDFTLKISRVEAEDVGVYYCSQNTHVPPTFGQGTKVEIERTVAAPSVFIFPPSDEQLKSGTASVVCLLNNFYPREAKVQWKVDNALQSGNSQESVTEQDSKDSTYSLSSTLTLSKADYEKHKVYACEVTHQGLSSPVTKSFNRGEC
4 | 101 % of control | GpH7-B3 variant K326_15Y/GpL16-k0 (antibody, human IgG1, kappa, homodimerized IgG1, mutation in both H chains; also called Ho Ab) heavy: not shown light: DIVMTQSPLSLPVTPGEPASISCQASESLVHSNRNTYLHWYLQKPGQSPQLLIYKVSNRFSGVPDRFSGSGSGTDFTLKISRVEAEDVGVYYCSQNTHVPPTFGQGTKVEIERTVAAPSVFIFPPSDEQLKSGTASVVCLLNNFYPREAKVQWKVDNALQSGNSQESVTEQDSKDSTYSLSSTLTLSKADYEKHKVYACEVTHQGLSSPVTKSFNRGEC
5 | 101 % of control | GpH7-B3 variant K326_16H/GpL16-k0 (antibody, human IgG1, kappa, homodimerized IgG1, mutation in both H chains; also called Ho Ab) heavy: not shown light: DIVMTQSPLSLPVTPGEPASISCQASESLVHSNRNTYLHWYLQKPGQSPQLLIYKVSNRFSGVPDRFSGSGSGTDFTLKISRVEAEDVGVYYCSQNTHVPPTFGQGTKVEIERTVAAPSVFIFPPSDEQLKSGTASVVCLLNNFYPREAKVQWKVDNALQSGNSQESVTEQDSKDSTYSLSSTLTLSKADYEKHKVYACEVTHQGLSSPVTKSFNRGEC
6 | 100 % of control | GpH7-B3 variant P271_04F/GpL16-k0 (antibody, human IgG1, kappa, homodimerized IgG1, mutation in both H chains; also called Ho Ab) heavy: not shown light: DIVMTQSPLSLPVTPGEPASISCQASESLVHSNRNTYLHWYLQKPGQSPQLLIYKVSNRFSGVPDRFSGSGSGTDFTLKISRVEAEDVGVYYCSQNTHVPPTFGQGTKVEIERTVAAPSVFIFPPSDEQLKSGTASVVCLLNNFYPREAKVQWKVDNALQSGNSQESVTEQDSKDSTYSLSSTLTLSKADYEKHKVYACEVTHQGLSSPVTKSFNRGEC
7 | 101 % of control | GpH7-B3 variant Q295_05P/GpL16-k0 (antibody, human IgG1, kappa, homodimerized IgG1, mutation in both H chains; also called Ho Ab) heavy: not shown light: DIVMTQSPLSLPVTPGEPASISCQASESLVHSNRNTYLHWYLQKPGQSPQLLIYKVSNRFSGVPDRFSGSGSGTDFTLKISRVEAEDVGVYYCSQNTHVPPTFGQGTKVEIERTVAAPSVFIFPPSDEQLKSGTASVVCLLNNFYPREAKVQWKVDNALQSGNSQESVTEQDSKDSTYSLSSTLTLSKADYEKHKVYACEVTHQGLSSPVTKSFNRGEC
8 | 107 % of control | GpH7-B3 variant K334_10E/GpL16-k0 (antibody, human IgG1, kappa, homodimerized IgG1, mutation in both H chains; also called Ho Ab) heavy: not shown light: DIVMTQSPLSLPVTPGEPASISCQASESLVHSNRNTYLHWYLQKPGQSPQLLIYKVSNRFSGVPDRFSGSGSGTDFTLKISRVEAEDVGVYYCSQNTHVPPTFGQGTKVEIERTVAAPSVFIFPPSDEQLKSGTASVVCLLNNFYPREAKVQWKVDNALQSGNSQESVTEQDSKDSTYSLSSTLTLSKADYEKHKVYACEVTHQGLSSPVTKSFNRGEC
9 | 102 % of control | GpH7-B3 variant P271_20W/GpL16-k0 (antibody, human IgG1, kappa, homodimerized IgG1, mutation in both H chains; also called Ho Ab) heavy: not shown light: DIVMTQSPLSLPVTPGEPASISCQASESLVHSNRNTYLHWYLQKPGQSPQLLIYKVSNRFSGVPDRFSGSGSGTDFTLKISRVEAEDVGVYYCSQNTHVPPTFGQGTKVEIERTVAAPSVFIFPPSDEQLKSGTASVVCLLNNFYPREAKVQWKVDNALQSGNSQESVTEQDSKDSTYSLSSTLTLSKADYEKHKVYACEVTHQGLSSPVTKSFNRGEC
10 | 100 % of control | GpH7-B3 variant Q295_04F/GpL16-k0 (antibody, human IgG1, kappa, homodimerized IgG1, mutation in both H chains; also called Ho Ab) heavy: not shown light: DIVMTQSPLSLPVTPGEPASISCQASESLVHSNRNTYLHWYLQKPGQSPQLLIYKVSNRFSGVPDRFSGSGSGTDFTLKISRVEAEDVGVYYCSQNTHVPPTFGQGTKVEIERTVAAPSVFIFPPSDEQLKSGTASVVCLLNNFYPREAKVQWKVDNALQSGNSQESVTEQDSKDSTYSLSSTLTLSKADYEKHKVYACEVTHQGLSSPVTKSFNRGEC
11 | 101 % of control | GpH7-B3 variant Q295_07I/GpL16-k0 (antibody, human IgG1, kappa, homodimerized IgG1, mutation in both H chains; also called Ho Ab) heavy: not shown light: DIVMTQSPLSLPVTPGEPASISCQASESLVHSNRNTYLHWYLQKPGQSPQLLIYKVSNRFSGVPDRFSGSGSGTDFTLKISRVEAEDVGVYYCSQNTHVPPTFGQGTKVEIERTVAAPSVFIFPPSDEQLKSGTASVVCLLNNFYPREAKVQWKVDNALQSGNSQESVTEQDSKDSTYSLSSTLTLSKADYEKHKVYACEVTHQGLSSPVTKSFNRGEC
12 | 101 % of control | GpH7-B3 variant S239_01G/GpL16-k0 (antibody, human IgG1, kappa, homodimerized IgG1, mutation in both H chains; also called Ho Ab) heavy: not shown light: DIVMTQSPLSLPVTPGEPASISCQASESLVHSNRNTYLHWYLQKPGQSPQLLIYKVSNRFSGVPDRFSGSGSGTDFTLKISRVEAEDVGVYYCSQNTHVPPTFGQGTKVEIERTVAAPSVFIFPPSDEQLKSGTASVVCLLNNFYPREAKVQWKVDNALQSGNSQESVTEQDSKDSTYSLSSTLTLSKADYEKHKVYACEVTHQGLSSPVTKSFNRGEC
13 | 102 % of control | GpH7-B3 variant P271_03V/GpL16-k0 (antibody, human IgG1, kappa, homodimerized IgG1, mutation in both H chains; also called Ho Ab) heavy: not shown light: DIVMTQSPLSLPVTPGEPASISCQASESLVHSNRNTYLHWYLQKPGQSPQLLIYKVSNRFSGVPDRFSGSGSGTDFTLKISRVEAEDVGVYYCSQNTHVPPTFGQGTKVEIERTVAAPSVFIFPPSDEQLKSGTASVVCLLNNFYPREAKVQWKVDNALQSGNSQESVTEQDSKDSTYSLSSTLTLSKADYEKHKVYACEVTHQGLSSPVTKSFNRGEC
14 | 102 % of control | GpH7-B3 variant Q295_03V/GpL16-k0 (antibody, human IgG1, kappa, homodimerized IgG1, mutation in both H chains; also called Ho Ab) heavy: not shown light: DIVMTQSPLSLPVTPGEPASISCQASESLVHSNRNTYLHWYLQKPGQSPQLLIYKVSNRFSGVPDRFSGSGSGTDFTLKISRVEAEDVGVYYCSQNTHVPPTFGQGTKVEIERTVAAPSVFIFPPSDEQLKSGTASVVCLLNNFYPREAKVQWKVDNALQSGNSQESVTEQDSKDSTYSLSSTLTLSKADYEKHKVYACEVTHQGLSSPVTKSFNRGEC
15 | 101 % of control | GpH7-B3 variant P271_11K/GpL16-k0 (antibody, human IgG1, kappa, homodimerized IgG1, mutation in both H chains; also called Ho Ab) heavy: not shown light: DIVMTQSPLSLPVTPGEPASISCQASESLVHSNRNTYLHWYLQKPGQSPQLLIYKVSNRFSGVPDRFSGSGSGTDFTLKISRVEAEDVGVYYCSQNTHVPPTFGQGTKVEIERTVAAPSVFIFPPSDEQLKSGTASVVCLLNNFYPREAKVQWKVDNALQSGNSQESVTEQDSKDSTYSLSSTLTLSKADYEKHKVYACEVTHQGLSSPVTKSFNRGEC
16 | 102 % of control | GpH7-B3 variant P271_06M/GpL16-k0 (antibody, human IgG1, kappa, homodimerized IgG1, mutation in both H chains; also called Ho Ab) heavy: not shown light: DIVMTQSPLSLPVTPGEPASISCQASESLVHSNRNTYLHWYLQKPGQSPQLLIYKVSNRFSGVPDRFSGSGSGTDFTLKISRVEAEDVGVYYCSQNTHVPPTFGQGTKVEIERTVAAPSVFIFPPSDEQLKSGTASVVCLLNNFYPREAKVQWKVDNALQSGNSQESVTEQDSKDSTYSLSSTLTLSKADYEKHKVYACEVTHQGLSSPVTKSFNRGEC
17 | 101 % of control | GpH7-B3 variant P271_13S/GpL16-k0 (antibody, human IgG1, kappa, homodimerized IgG1, mutation in both H chains; also called Ho Ab) heavy: not shown light: DIVMTQSPLSLPVTPGEPASISCQASESLVHSNRNTYLHWYLQKPGQSPQLLIYKVSNRFSGVPDRFSGSGSGTDFTLKISRVEAEDVGVYYCSQNTHVPPTFGQGTKVEIERTVAAPSVFIFPPSDEQLKSGTASVVCLLNNFYPREAKVQWKVDNALQSGNSQESVTEQDSKDSTYSLSSTLTLSKADYEKHKVYACEVTHQGLSSPVTKSFNRGEC
18 | 101 % of control | GpH7-B3 variant Q295_18N/GpL16-k0 (antibody, human IgG1, kappa, homodimerized IgG1, mutation in both H chains; also called Ho Ab) heavy: not shown light: DIVMTQSPLSLPVTPGEPASISCQASESLVHSNRNTYLHWYLQKPGQSPQLLIYKVSNRFSGVPDRFSGSGSGTDFTLKISRVEAEDVGVYYCSQNTHVPPTFGQGTKVEIERTVAAPSVFIFPPSDEQLKSGTASVVCLLNNFYPREAKVQWKVDNALQSGNSQESVTEQDSKDSTYSLSSTLTLSKADYEKHKVYACEVTHQGLSSPVTKSFNRGEC
19 | 104 % of control | GpH7-B3 variant Q295_02A/GpL16-k0 (antibody, human IgG1, kappa, homodimerized IgG1, mutation in both H chains; also called Ho Ab) heavy: not shown light: DIVMTQSPLSLPVTPGEPASISCQASESLVHSNRNTYLHWYLQKPGQSPQLLIYKVSNRFSGVPDRFSGSGSGTDFTLKISRVEAEDVGVYYCSQNTHVPPTFGQGTKVEIERTVAAPSVFIFPPSDEQLKSGTASVVCLLNNFYPREAKVQWKVDNALQSGNSQESVTEQDSKDSTYSLSSTLTLSKADYEKHKVYACEVTHQGLSSPVTKSFNRGEC
20 | 101 % of control | GpH7-B3 variant Q295_13S/GpL16-k0 (antibody, human IgG1, kappa, homodimerized IgG1, mutation in both H chains; also called Ho Ab) heavy: not shown light: DIVMTQSPLSLPVTPGEPASISCQASESLVHSNRNTYLHWYLQKPGQSPQLLIYKVSNRFSGVPDRFSGSGSGTDFTLKISRVEAEDVGVYYCSQNTHVPPTFGQGTKVEIERTVAAPSVFIFPPSDEQLKSGTASVVCLLNNFYPREAKVQWKVDNALQSGNSQESVTEQDSKDSTYSLSSTLTLSKADYEKHKVYACEVTHQGLSSPVTKSFNRGEC
21 | 102 % of control | GpH7-B3 variant Q295_14T/GpL16-k0 (antibody, human IgG1, kappa, homodimerized IgG1, mutation in both H chains; also called Ho Ab) heavy: not shown light: DIVMTQSPLSLPVTPGEPASISCQASESLVHSNRNTYLHWYLQKPGQSPQLLIYKVSNRFSGVPDRFSGSGSGTDFTLKISRVEAEDVGVYYCSQNTHVPPTFGQGTKVEIERTVAAPSVFIFPPSDEQLKSGTASVVCLLNNFYPREAKVQWKVDNALQSGNSQESVTEQDSKDSTYSLSSTLTLSKADYEKHKVYACEVTHQGLSSPVTKSFNRGEC
22 | 103 % of control | GpH7-B3 variant K326_14T/GpL16-k0 (antibody, human IgG1, kappa, homodimerized IgG1, mutation in both H chains; also called Ho Ab) heavy: not shown light: DIVMTQSPLSLPVTPGEPASISCQASESLVHSNRNTYLHWYLQKPGQSPQLLIYKVSNRFSGVPDRFSGSGSGTDFTLKISRVEAEDVGVYYCSQNTHVPPTFGQGTKVEIERTVAAPSVFIFPPSDEQLKSGTASVVCLLNNFYPREAKVQWKVDNALQSGNSQESVTEQDSKDSTYSLSSTLTLSKADYEKHKVYACEVTHQGLSSPVTKSFNRGEC
